Data published in the DeepSol protein solubility set.

Test: soluble on expression in E. coli; label from the status in PepcDB or PDB records
With “MNSVSEPVPSHGKKPPKNVLAEHGGWKILRILLVSTYKDFRNERRAVLDLVENKLQPIASEKHVILQVEDFSWGSKAHLEEASSLYLIERLCREAVSSSSYFYLHFLGECSGYILDPNFTDQSFLRQHSISTGQSFSEVFLQLSGLQNEKSLFLYRNPSFHQELPFNVTHFIDGPVNRERAKYLTTMVRGEAPASKFIEYSVRTSGINNIHFKHIMFDELSGITKPIEAMVGKYLEKLPDGEAGIPSVEEFMNEYYSQLHVNQTIMSKIEYNLKSHKSILLVGDYCTGKTSILHRIQWKYRDAVIVQAKEKMSAIELRRAIEAKTNVILHDVEQKVVRYLLVDDIHLNFCENFKVKITLSQILQNFNCFAQIFSLLKQIFINFFQASKEAQQYLIGNEELVIVATSRKKKLEVDMNRIIIPHLEPEDILDELSFWLNGGEKEKSGVPSVKASNILKMSQQKRRRSIGTVEDGHQPDENIGWNSLKCRVIGTLGRIGSSDEKCAQLAQLSTLSVVEADMCLMESDGKGHLLIATLCYLTIVESGLNEMELRSLLILEYNLLPIAIRRNYKNLPFDYCPDEFGTTSCTQTLPLRWYFVLHRLGHLFMKIDGDSNHFVLPSACRRVVFKKYLKHPHNLEHFKKNFKEFLTNFSGKEWNRNRQIKMYL” the “soluble on expression in E. coli” value was “not soluble”.
For “MAPGQLALFSVSDKTGLVEFARNLTALGLNLVASGGTAKALRDAGLAVRDVSELTGFPEMLGGRVKTLHPAVHAGILARNIPEDNADMARLDFNLIRVVACNLYPFVKTVASPGVTVEEAVEQIDIGGVTLLRAAAKNHARVTVVCEPEDYVVVSTEMQSSESKDTSLETRRQLALKAFTHTAQYDEAISDYFRKQYSKGVSQMPLRYGMNPHQTPAQLYTLQPKLPITVLNGAPGFINLCDALNAWQLVKELKEALGIPAAASFKHVSPAGAAVGIPLSEDEAKVCMVYDLYKTLTPISAAYARARGADRMSSFGDFVALSDVCDVPTAKIISREVSDGIIAPGYEEEALTILSKKKNGNYCVLQMDQSYKPDENEVRTLFGLHLSQKRNNGVVDKSLFSNVVTKNKDLPESALRDLIVATIAVKYTQSNSVCYAKNGQVIGIGAGQQSRIHCTRLAGDKANYWWLRHHPQVLSMKFKTGVKRAEISNAIDQYVTGTIGEDEDLIKWKALFEEVPELLTEAEKKEWVEKLTEVSISSDAFFPFRDNVDRAKRSGVAYIAAPSGSAADKVVIEACDELGIILAHTNLRLFHH”, the “soluble on expression in E. coli” value was “soluble”.
In the case of “GSPEFKTIDASVSKKAADSTSQCGKATGSDSSGVIDLTMDDEESGASQD”, the “soluble on expression in E. coli” value is reported as “soluble”.
In the case of “ALQNKEEEKKKVKKLQKSYFDVLGICCTSEVPIIENILKSLDGVKEYSVIVPSRTVIVVHDSLLISPFQIAKALNEARLEANVRVNGETSFKNKW”, the “soluble on expression in E. coli” value is reported as “soluble”.
With “MGSDKIHHHHHHMAQVDLLNVKGEKVGTLEISDFVFNIDPNYDVMWRYVDMQLSNRRAGTASTKTRGEVSGGGRKPWPQKHTGRARHGSIRSPIWRHGGVVHGPKPRDWSKKLNKKMKKLALRSALSVKYRENKLLVLDDLKLERPKTKSLKEILQNLQLSDKKTLIVLPWKEEGYMNVKLSGRNLPDVKVIIADNPNNSKNGEKAVRIDGLNVFDMLKYDYLVLTRDMVSKIEEVLGNEAGKALTA” the “soluble on expression in E. coli” value was “not soluble”.
For “MSKPMKILLANPRGFCAGVDRAISIVERALELYQPPIYVRHEVVHNRFVVEGLKQRGARFVEELNEVPDDNIVIFSAHGVSQAVRQEAKERSLTVFDATCPLVTKVHMEVARASRKHMEVVLIGHAGHPEVEGTMGQYASDTGGMYLVEKPEDVVSLQAKVKDPSNLHYVSQTTLSVDETADVIDELRRVFPKIQGPRKDDICYATQNRQDAVRILAEQVDVMVVVGSKNSSNSTRLKELAEKLGTPGYLIDCPQDIDPEWFVDAQLIGVTAGASAPEELVNQILDRIKELGATSVEEVLGREENMFFEVPKELQIKQVD”, the “soluble on expression in E. coli” value was “soluble”.
In the case of “MSAEFNQLVAQFEQFQAKLHRVDQQFADLGQMQRELTELEVVATSADREVTVVAGPSGTIKDIRLTDQAMHRPPQALATALMATLRQAVAESARRQAGIVENALGDEMGLTEQVLETQAQLFGVTPQELRAMTEQAPGQPPAAPPPAPPAAGPGPQTPLAPPARPTPPRRPAPAEEADDFSQRGFLRDDDQQPRRPQADPGQKRDDRFLNLYDDEGR”, the “soluble on expression in E. coli” value is reported as “not soluble”.
For “MLLELIPLLGIHFVLRTARAQSVTQPDIHITVSEGASLELRCNYSYGATPYLFWMERTVEEAFILLVCLKPWRVASSLEKKEKEDESFQLLLGSRYNVLEAHCLLPLIRWLTSGDSLLSAQPHCPQEL”, the “soluble on expression in E. coli” value was “not soluble”.
For “MKFDVIIIGGSYAGLSAALQLGRARKNILLVDAGERRNRFASHSHGFLGQDGKAPGEIIAEARRQIERYPTIHWVEGRVTDAKGSFGEFIVEIDGGRRETAGRLILAMGVTDELPEIAGLRERWGSAVFHCPYCHGYELDQGKIGVIAASPMAIHHALMLPDWGETTFFTNGIVEPDADQHALLAARGVRVETTRIREIAGHADVVLADGRSIALAGLFTQPKLRITVDWIEKLGCAVEEGPMGSTIVTDPMKQTTARGIFACGDVARPAGSVALAVGDGAMAGAAAHRSILFPEMR”, the “soluble on expression in E. coli” value was “soluble”.
For “MKTINSVDTKEFLNHQVANLNVFTVKIHQIHWYMRGHNFFTLGEKMDDLYSEFGEQMDEVAERLLAIGGSPFSTLKEFLENASVEEAPYTKPKTMDQLMEDLVGTLELLRDEYKQGIELTDKEGDDVTNDMLIAFKASIDKHIWMFKAFLGKAPLE”, the “soluble on expression in E. coli” value was “soluble”.
In the case of “MRINEMALHEKPRERLITYGAKSLSNVELLAILLNTGRKGFSSIDIANELLKQQSTIRDLKKLSINDLLKIKGIGLYKAVILQAAFELGERINSTSTFDKVQITHPSDVASLMMSTMKDLEQEHFVVLLLNSKNIVTKQAWVYKGTLNSSIIHPREVFNIAIRESSNSIIVVHNHPSGDVTPSKEDITTTYRLKECGDILGINLLDHIIIGDNKFTSLVEAGYFDK”, the “soluble on expression in E. coli” value is reported as “not soluble”.
In the case of “MGDGISETIDAFHRGRFHIIQPKGRGHRAGMDAMLLASLVADDRACRIADLGAGAGAAGMAVAARLEKAEVTLYERSQEMAEFARRSLELPDNAAFSARIEVLEADVTLRAKARVEAGLPDEHFHHVIMNPPYNDAGDRRTPDALKAEAHAMTEGLFEDWIRTASAIMVSGGQLSLISRPQSVAEIIAACGSRFGGLEITLIHPRPGEDAVRMLVTAIKGSRARLTFRAPLIMHET”, the “soluble on expression in E. coli” value is reported as “soluble”.
In the case of “MVTLTTNTEGATIYYTLDGSNPTNKSVRYNGRIVVNENSVIKAIAEKEGLTSSAISTFSFVIVNNEPVRIHDIQGKSHLSPYNGKKVYNVEGVVTALDKNGFYIEDNQPDNDPATSEGMYVYKKDANVAVGDLIQVDGVVEEYVGPGYAERFDTDLTTTEIKASRVVVIAKDQVLPAPIVLGENGVKIPDQIIDNDAFGLFDPNEDAIDFYESVEGMRVTMPTPKIIAPQKNGNLYVTVKNGGNKVVTKYGTPVLDENQLNPERLSVKVPRDYVAKVGDTFTGDITGVVGYDYGSFRIAPITELPSVVDGGFKQIGANIQPRLDKLEHHHHHH”, the “soluble on expression in E. coli” value is reported as “soluble”.
With “MMKQNPILITGGTGTVGSRIASRLIKLGYRVRIASRKKGALADAEYVYFNWKYASSFTPALEQVKQIYLVAPVGVFDPAPYVLPFLKEAKRLGAKRVVMQSASVVSENGPVFGALHQAVREFPEWTVLRPSYFMQNFINVQHRMSIQTEGRITTASGEGKLGFIDADDIAETAVRALIDDVPHQTHHILTGPEALSYAEAAEIIGAAAGRRVEHVSISRSELQHKMEAGGLPADYAHFMAKLDEAISHGAEHRVTDTVKRVTGKEPRSLSEFAAAHAAYWTSFWTELEHHHHHH” the “soluble on expression in E. coli” value was “not soluble”.
With “MGHHHHHHSHMDFSHWPHVLPLEPGGCIDFQTENSSRHCLVTYRPDKNHTTIRSVLMEMSYRLDDTGNPICSCQPVHTFFGGPTCKLLTKNAIFQSPENDGNILVCTGDEAANSALLWDAASGSLLQDLRTDQPVLDICPFEVNRNSYLATLTEKMVHIYKWE” the “soluble on expression in E. coli” value was “not soluble”.
In the case of “MGSDKIHHHHHHMLKNSAKNFVENIEKKLYLSIKEKTDSITFKLEKVLKAFSDSHLNVQHFASLTGYGHGDLGRDIIDKIFANVLDAEKAAVRLQLVSGTHAITSSLFGVLRPGDGLLSVTGRPYESLEEVIGLRGNGKGSLIEFGIAYEEISLKDDGNIDFLALEKALKIPRKLIFIQRSCGYTWRPSLSIEVIKEICYLCHKIQPNCICFVDNCYGEFVETNEPTSVGADLIAGSLIKNLGGTIVPTGGYIAGKADLVDKACCRLTAPGIGSEGGITFDLNRTILQGLFLAPQMVSEALIGAEIISTSFSELGFKVLPTPASKRTDLIQIVRIGDPKILQIICRSFQEKSPIGSFLDPIPAPMPGYENNLVMAGGTFVDGSTSEFSADAPMKPPFDLFIQGGSHRAHVKIALIHALSNLFQAGLIKLPQND”, the “soluble on expression in E. coli” value is reported as “not soluble”.
In the case of “MSLKYAVLGATGLLGHHAARAIRAAGHDLVLVHRPSSQIQRLAYLEPECRVAEMLDHAGLERALRGLDGVIFSAGYYPSRPRRWQEEVASALGQTNPFYAACLQARVPRILYVGSAYAMPRHPQGLPGHEGLFYDSLPSGKSSYVLCKWALDEQAREQARNGLPVVIGIPGMVLGELDIGPTTGRVITAIGNGEMTHYVAGQRNVIDAAEAGRGLLMALERGRIGERYLLTGHNLEMADLTRRIAELLGQPAPQPMSMAMARALATLGRLRYRVSGQLPLLDETAIEVMAGGQFLDGRKAREELGFFSTTALDDTLLRAIDWFRDNGYFNTEGHHHHHH”, the “soluble on expression in E. coli” value is reported as “soluble”.
In the case of “MGSDKIHHHHHHMENIPFLRASTVPVIEYLDELKEIDASHIYTNYGPINQRFEQTIMSGFFQNRGAVTTVANATLGLMAAIQLKKRKKGKYALMPSFTFPATPLAAIWCGLEPYFIDISIDDWYMDKTVLWDKIEELKEEVAIVVPYATFGSWMNLEEYEELEKKGVPVVVDAAPGFGLMNGGMHYGQDFSGMIIYSFHATKPFGIGEGGLIYSKNEEDIQRIKRMGNFGFDTNRECTMMGFNCKMSEYAAAIGIATMKKWDDKLKERTRISEWYKQLLQSNGLMKKGWQLQKTEAVIQQFMPILCPEEVRNKQVIEDLKKQKIEARLYFSPSCHQQVLFRNYKSTDLTRTNKIAKRIVSLPLWEGMTKEIVEQIVICLGQKVVSADE”, the “soluble on expression in E. coli” value is reported as “not soluble”.
With “MSLSEYLGNKEAKQQMLKTIIKDLHQGKDFNQVKADFQNLIKDIDASEIANMEQALIGEGMNPEEITKLCDVHAAVFRDALEENEKPNLILGHPMYTIKHENEEIKKALEELDNYFSSNQMDAFKDRLSFFRDNLDRHYSKKENILFPYLERHNITGPPSVMWSVDDEIRDMGKILLTRVKEGDAGAIKTAYETMKNKISEMIFKEENILTPMLLETLTEEEWAEIKQEDEEFGVVFSKPHGNFWQPKAVTTKNISFEPTGEALSLDTGFLTLEQINTILTNIPIDITFVDKDDTVRYFSQGRERIFVRTKSIIGRKVQNCHPPDSVHMVEKILSDFKHGKHSTAEFWLELAEKFIHIRYFALRDEQGHYVGTMEVSQDVTGIRSLEGERRLLQYEDEGHHHHHH” the “soluble on expression in E. coli” value was “soluble”.
With “MADGQVHDELMMDQQQQQGVVPQQGDIHLSPIDKDLGDAALENNVRQYHLDGVVVSEGMKRMIIDLQRHWLSEYHASREKCLVELTEKLHQEFMMDQQKIRSELLQQFKDELEQTRADLENKHRENLKMESAKLNEKHKRELVASRKKQWCWSCDNEAIYHCCWNTAYCSVECQQGHWQTHRKFCRRKKGNNAPGAPSVPAPQQVGAPMPPQQQ” the “soluble on expression in E. coli” value was “not soluble”.
